The text below walks through data of patent publication US10428140B2, “Anti-EphA4 antibody” (EISAI R&D MANAGEMENT CO., LTD., priority 2015, dated 2019).

Test [1] deals with mouse, rat, monkey, and human EphA4. Briefly: Reactivity ELISA with mouse, rat, monkey, and human EphA4. In kind it is binding. As to conditions: 0.00128-20 μg/mL. The procedure: Mouse, rat, monkey, and human EphA4 extracellular region-Fc-His proteins were prepared according to the following steps. First, according to the method described in Example 1, a monkey EphA4 extracellular region-Fc-His protein expression vector was constructed. The amino acid sequence of monkey EphA4 used in the vector construction is shown in SEQ ID NO: 44, and its extracellular region is shown in SEQ ID NO: 45. Next, HEK293EBNA cells (Life Technologies) were inoculated to a 10-cm dish (Falcon) and cultured at 37° C. for 1 day. The HEK293EBNA cells were transfected with the monkey EphA4 extracellular region-Fc-His protein expression vector or the mouse EphA4, rat EphA4, or human EphA4 extracellular region-Fc-His protein expression vector described in Example 1 using TransIT-LT1 (TAKARA). After incubation (5% CO2, 37° C.) for 4 days, the culture supernatant was recovered and centrifuged at 1500 rpm at room temperature for 5 minutes. […]
Antibody A was evaluated for its binding activity against various Eph receptors according to the following steps.
Each well of a 96-well plate (Nunc) was coated with a donkey anti-mouse IgG antibody (Jackson ImmunoResearch Laboratories). […] The absorbance at 450 nm was read using a microplate reader (PerkinElmer).
On the technique in general: An ELISA detects its analyte on a solid surface through an enzyme-linked reagent.

The subject of another test is rat hippocampal neurons. Briefly: Ligand-induced growth cone collapse in hippocampal neurons. The class given is cell-based. Particulars: antibody A 0.1, 0.3, 1 μM; KYL peptide 10, 30, 100 μM. The procedure:
Rat hippocampal neurons were prepared as described in Example 10 above. The cells were inoculated to a 96-well plate (Greiner Bio-One) coated with poly-L-lysine containing culture solution.
The growth cone collapse assay using the hippocampal neurons was conducted according to the following steps. The rat hippocampal neurons of culture day 2 inoculated to the 96-well dish (Greiner Bio-One) were treated with PBS (Wako Pure Chemical Industries), antibody A (0.1, 0.3, and 1 μM), or an EphA4 inhibitor KYL peptide (KYLPYWPVLSSL, 10, 30, and 100 μM, its synthesis was outsourced to Toray Research Center) for 15 minutes and then treated with goat anti-human Fcγ fragment IgG1 antibody (Jackson ImmunoResearch Laboratories)-preclustered mouse Ephrin A1-Fc chimera (R&D Systems, final concentration: 1 μg/mL) (ratio: 1:5) for 30 minutes. Then, the culture solution was removed, and 2% PFA (Wako Pure Chemical Industries)/4% sucrose (Wako Pure Chemical Industries)/PBS was added, and left standing for 20 minutes to fix the cells. The solution was removed, and the cells were washed with PBS three times, followed by the addition of 0.25% Triton X-100 (Wako Pure Chemical Industries)/PBS for cell penetration treatment for 15 minutes. […] Neurons forming growth cone were counted in 30 fields of view per sample to calculate the proportion of the number of neurons causing growth cone collapse.

B1: antibody A: mouse anti-EphA4 monoclonal antibody, IgG1/κ; heavy chain variable region SEQ ID NO: 11, light chain variable region SEQ ID NO: 13 (antibody, listed as Mus musculus, V domains shown)
VH: QIQLVQSGPELKKPGETVKISCKASGYTFTDYSMHWVKQAPGKGLKWMGWINTETGEPTYADDFKGRFAFSLETSASTAYLQINNLKNEDTATYFCARIPLYYYGSRYWYFDVWGAGTTVTVSS
VL: DIQMTQSPASLSVSVGETVTITCRASENIYRNLAWYQQKQGKSPQLLVYAATNLADGVPSRFSGSGSGTQYSLKINSLQSEDFGSYYCQHFWGTPWTFGGGTKLEIK
As for B1, in test [1], the “reaction activity against mouse, rat, monkey, and human EphA4 (in words)” value was “equivalent reaction activity against all of mouse, rat, monkey, and human EphA4”. Further, the “suppression of growth cone collapse induced by mouse Ephrin A1 (in words)” value with rat hippocampal neurons is “suppressed, in a concentration-dependent manner”.
